Molecular target: T1, ZIP10 (SLC39A10) zinc transporter, endogenous in cells (human, UniProt Q9ULF5 26-831)
T1 construct: Endogenous ZIP10 of MCF-7 cells or of ZIP6-transfected cells
T1 sequence: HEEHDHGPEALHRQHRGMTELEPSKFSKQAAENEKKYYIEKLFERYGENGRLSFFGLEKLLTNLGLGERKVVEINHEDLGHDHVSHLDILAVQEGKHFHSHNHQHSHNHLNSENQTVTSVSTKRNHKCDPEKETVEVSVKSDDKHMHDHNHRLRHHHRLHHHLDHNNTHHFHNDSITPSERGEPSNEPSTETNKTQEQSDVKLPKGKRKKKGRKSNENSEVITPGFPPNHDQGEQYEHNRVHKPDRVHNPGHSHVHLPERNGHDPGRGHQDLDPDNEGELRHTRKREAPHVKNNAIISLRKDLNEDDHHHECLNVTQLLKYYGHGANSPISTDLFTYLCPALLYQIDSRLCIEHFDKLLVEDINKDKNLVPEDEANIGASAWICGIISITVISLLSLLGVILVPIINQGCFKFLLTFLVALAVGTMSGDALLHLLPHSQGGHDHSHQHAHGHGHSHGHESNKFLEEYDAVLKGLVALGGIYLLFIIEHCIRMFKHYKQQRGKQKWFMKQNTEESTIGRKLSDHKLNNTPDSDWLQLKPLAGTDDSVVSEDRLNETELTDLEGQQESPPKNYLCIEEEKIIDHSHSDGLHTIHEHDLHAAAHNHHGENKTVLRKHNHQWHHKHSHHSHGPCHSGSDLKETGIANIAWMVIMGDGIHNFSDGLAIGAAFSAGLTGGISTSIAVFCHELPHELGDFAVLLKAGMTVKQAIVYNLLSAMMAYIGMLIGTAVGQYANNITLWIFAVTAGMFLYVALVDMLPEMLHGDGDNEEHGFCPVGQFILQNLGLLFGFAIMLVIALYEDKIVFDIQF
Assay: immunoprecipitation with V5 antibody, Western blot for ZIP10
Description: FIG. 2. […] [A] FACS cell cycle analysis confirms the increase in the G2/M population in nocodazole-treated cells, compared to control. […] Statistical significance is determined by Student's t test. *** p<0.001. [B] Control PLA using either our ZIP6-Y or our ZIP10 antibodies alone in nocodazole-treated MCF-7 cells produces only a few dots in mitotic cells (arrow), compared to FIG. 3D. Scale bar, 20 μm. [C] […] [D] FACS cell cycle analysis confirms the increase in the G2/M population in the non-adherent cells collected using the mitotic shake-off technique, compared to the adherent cells from the same dishes. […] Statistical significance is determined by Student's t test. *** p<0.001. [E] PLA using ZIP6-SC and pY⁷⁰⁵STAT3 antibodies together as well as individual control ZIP6-SC and […] antibodies in nocodazole-treated MCF-7 cells produces only few dots, compared to FIG. 5F.
Cells were harvested, washed with PBS, lysed for 1 hour at 4° C. with lysis buffer pH7.6 (50 mM Tris, 150 mM NaCl, 5 mM EGTA and 1% Triton X-100) with protease inhibitor cocktail for mammalian cells (Signa-Aldrich) and phosphatase inhibitors (2 mM sodium orthovanadate and 50 mM sodium fluoride). Protein was measured using Bio-Rad/Bradford dye-binding protein microassay. Western Blot results of 40 μg/lane from three separate experiments were normalised to GAPDH values. […]

B1: recombinant ZIP6 wild-type with C-terminal V5 tag (other)
chain: FPQTTEKISPNWESGINVDLAISTRQYHLQQLFYRYGENNSLSVEGFRKLLQNIGIDKIKRIHIHHDHDHHSDHEHHSDHERHSDHEHHSEHEHHSDHDHHSHHNHAASGKNKRKALCPDHDSDSSGKDPRNSQGKGAHRPEHASGRRNVKDSVSASEVTSTVYNTVSEGTHFLETIETPRPGKLFPKDVSSSTPPSVTSKSRVSRLAGRKTNESVSEPRKGFMYSRNTNENPQECFNASKLLTSHGMGIQVPLNATEFNYLCPAIINQIDARSCLIHTSEKKAEIPPKTYSLQIAWVGGFIAISIISFLSLLGVILVPLMNRVFFKFLLSFLVALAVGTLSGDAFLHLLPHSHASHHHSHSHEEPAMEMKRGPLFSHLSSQNIEESAYFDSTWKGLTALGGLYFMFLVEHVLTLIKQFKDKKKKNQKKPENDDDVEIKKQLSKYESQLSTNEEKVDTDDRTEGYLRADSQEPSHFDSQQPAVLEEEEVMIAHAHPQEVYNEYVPRGCKNKCHSHFHDTLGQSDDLIHHHHDYHHILHHHHHQNHHPHSHSQRYSREELKDAGVATLAWMVIMGDGLHNFSDGLAIGAAFTEGLSSGLSTSVAVFCHELPHELGDFAVLLKAGMTVKQAVLYNALSAMLAYLGMATGIFIGHYAENVSMWIFALTAGLFMYVALVDMVPEMLHNDASDHGCSRWGYFFLQNAGMLLGFGIMLLISIFEHKIVFRINF
notes: Expressed by transfection and immunoprecipitated from cell lysate with V5 antibody; also called ZIP6 wild-type (WT); ZIP6/LIV-1/SLC39A6 in pcDNA3.1/V5-His-TOPO; not shown: C-terminal V5 tag from vector pcDNA3.1/V5-His-TOPO
binding result: binds
